Assay results: paper PMC11324745

Biological target: DNA polymerase theta helicase domain (Polθ-hel, residues 1–894) (human), O75417
Assay: cryo-EM structure
Details: remark: other sources report otherwise

B1: DNA polymerase theta helicase domain (Polθ-hel, residues 1–894), O75417 1-894 (domain or fragment)
chain: MNLLRRSGKRRRSESGSDSFSGSGGDSSASPQFLSGSVLSPPPGLGRCLKAAAAGECKPTVPDYERDKLLLANWGLPKAVLEKYHSFGVKKMFEWQAECLLLGQVLEGKNLVYSAPTSAGKTLVAELLILKRVLEMRKKALFILPFVSVAKEKKYYLQSLFQEVGIKVDGYMGSTSPSRHFSSLDIAVCTIERANGLINRLIEENKMDLLGMVVVDELHMLGDSHRGYLLELLLTKICYITRKSASCQADLASSLSNAVQIVGMSATLPNLELVASWLNAELYHTDFRPVPLLESVKVGNSIYDSSMKLVREFEPMLQVKGDEDHVVSLCYETICDNHSVLLFCPSKKWCEKLADIIAREFYNLHHQAEGLVKPSECPPVILEQKELLEVMDQLRRLPSGLDSVLQKTVPWGVAFHHAGLTFEERDIIEGAFRQGLIRVLAATSTLSSGVNLPARRVIIRTPIFGGRPLDILTYKQMVGRAGRKGVDTVGESILICKNSEKSKGIALLQGSLKPVRSCLQRREGEEVTGSMIRAILEIIVGGVASTSQDMHTYAACTFLAASMKEGKQGIQRNQESVQLGAIEACVMWLLENEFIQSTEASDGTEGKVYHPTHLGSATLSSSLSPADTLDIFADLQRAMKGFVLENDLHILYLVTPMFEDWTTIDWYRFFCLWEKLPTSMKRVAELVGVEEGFLARCVKGKVVARTERQHRQMAIHKRFFTSLVLLDLISEVPLREINQKYGCNRGQIQSLQQSAAVYAGMITVFSNRLGWHNMELLLSQFQKRLTFGIQRELCDLVRVSLLNAQRARVLYASGFHTVADLARANIVEVEVILKNAVPFKSARKAVDEEEEAVEERRNMRTIWVTGRKGLTEREAAALIVEEARMILQQDLVEM
- percent of particles in the dimeric form: 95%
- percent of particles in the tetrameric form: 5%
